Results taken from patent US20240270857A1 (CHIA TAI TIANQING PHARMACEUTICAL GROUP, published 2024).

Key:
[1] = biological target: T1, hIL36R-ECD hFc recombinant protein (human); experiment: ELISA of hybridoma culture supernatant on hIL-36R
T1 construct: also called hIL-36R extracellular region with human antibody heavy chain Fc

[2] = biological target: T2, human IL-36R overexpressed on 293T-hIL36R-NFκB cells (human, UniProt Q9HB29 20-575); experiment: cell-based or functional assay
T2 sequence: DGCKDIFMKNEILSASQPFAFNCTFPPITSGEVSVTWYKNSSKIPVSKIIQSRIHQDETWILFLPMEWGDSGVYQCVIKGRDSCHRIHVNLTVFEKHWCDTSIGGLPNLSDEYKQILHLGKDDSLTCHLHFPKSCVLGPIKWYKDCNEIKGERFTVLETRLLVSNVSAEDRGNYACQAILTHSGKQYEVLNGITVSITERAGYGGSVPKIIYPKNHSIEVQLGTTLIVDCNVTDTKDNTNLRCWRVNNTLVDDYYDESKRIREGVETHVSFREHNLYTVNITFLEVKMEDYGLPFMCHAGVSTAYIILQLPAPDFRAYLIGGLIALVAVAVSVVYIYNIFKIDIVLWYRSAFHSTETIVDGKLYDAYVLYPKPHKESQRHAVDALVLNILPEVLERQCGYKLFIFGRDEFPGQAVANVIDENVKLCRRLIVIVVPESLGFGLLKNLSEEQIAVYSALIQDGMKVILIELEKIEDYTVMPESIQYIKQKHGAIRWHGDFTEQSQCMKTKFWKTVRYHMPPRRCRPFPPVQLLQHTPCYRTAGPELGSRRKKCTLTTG

[3] = biological target: T3, IL-36R naturally expressed on OVCAR8 cells and on normal human epidermal keratinocytes (NHK cells) (human, UniProt Q9HB29 20-575); experiment: cell-based or functional assay
T3 sequence (looked up): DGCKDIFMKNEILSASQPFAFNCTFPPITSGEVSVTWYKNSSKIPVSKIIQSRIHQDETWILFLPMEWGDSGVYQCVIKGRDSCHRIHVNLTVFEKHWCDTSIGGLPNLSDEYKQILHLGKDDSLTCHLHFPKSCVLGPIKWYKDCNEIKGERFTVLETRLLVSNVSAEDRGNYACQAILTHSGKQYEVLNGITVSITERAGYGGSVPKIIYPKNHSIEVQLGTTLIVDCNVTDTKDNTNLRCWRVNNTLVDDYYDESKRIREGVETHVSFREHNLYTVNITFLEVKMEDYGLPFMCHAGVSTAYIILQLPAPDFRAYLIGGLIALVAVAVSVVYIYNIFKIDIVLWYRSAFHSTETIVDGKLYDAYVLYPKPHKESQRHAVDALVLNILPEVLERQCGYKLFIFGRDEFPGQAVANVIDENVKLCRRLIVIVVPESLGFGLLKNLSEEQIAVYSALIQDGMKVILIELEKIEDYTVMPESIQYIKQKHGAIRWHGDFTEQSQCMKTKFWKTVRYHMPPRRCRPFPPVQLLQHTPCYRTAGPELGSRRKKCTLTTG

[4] = biological target: T3, IL-36R naturally expressed on OVCAR8 …; experiment: cell-based or functional assay; remark: listed apart in the source
[5] = biological target: T3, IL-36R naturally expressed on OVCAR8 …; experiment: cell-based or functional assay; remark: listed apart in the source
[6] = biological target: T3, IL-36R naturally expressed on OVCAR8 …; experiment: cell-based or functional assay; remark: listed apart in the source
[7] = biological target: T3, IL-36R naturally expressed on OVCAR8 …; experiment: cell-based or functional assay; remark: listed apart in the source
[8] = biological target: T2, human IL-36R overexpressed on …; experiment: cell-based or functional assay; remark: listed apart in the source
[9] = biological target: T3, IL-36R naturally expressed on OVCAR8 …; experiment: cell-based or functional assay; remark: listed apart in the source
[10] = biological target: T2, human IL-36R overexpressed on …; experiment: cell-based or functional assay; remark: listed apart in the source
[11] = biological target: T4, cynomolgus IL-36R overexpressed on 293T-CynoIL36R-NFκB cells (cynomolgus monkey); experiment: FACS on 293T-CynoIL36R-NFκB cells, ratio of MFI to background MFI
T4 construct: Entry includes the signal peptide; also called monkey IL-36R
T4 chain: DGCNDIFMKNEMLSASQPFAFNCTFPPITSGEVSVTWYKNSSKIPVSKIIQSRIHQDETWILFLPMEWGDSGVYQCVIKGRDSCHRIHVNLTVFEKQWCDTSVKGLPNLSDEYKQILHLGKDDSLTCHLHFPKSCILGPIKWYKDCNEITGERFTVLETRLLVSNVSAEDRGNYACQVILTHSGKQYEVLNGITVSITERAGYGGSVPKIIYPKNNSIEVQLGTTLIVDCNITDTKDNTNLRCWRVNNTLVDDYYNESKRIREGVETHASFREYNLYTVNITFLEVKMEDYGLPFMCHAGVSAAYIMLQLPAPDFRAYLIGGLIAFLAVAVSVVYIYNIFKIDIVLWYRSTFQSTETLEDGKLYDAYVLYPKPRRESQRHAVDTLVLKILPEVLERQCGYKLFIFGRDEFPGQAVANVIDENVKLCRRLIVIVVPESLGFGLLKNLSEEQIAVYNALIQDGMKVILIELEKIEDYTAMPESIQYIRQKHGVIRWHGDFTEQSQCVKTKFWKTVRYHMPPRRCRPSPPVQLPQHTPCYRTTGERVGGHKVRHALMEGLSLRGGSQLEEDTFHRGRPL
Protocol: After the cells was washed with PBS, the cells were resuspended with 100 μL of PBS and then the fluorescence signal was detected using a flow cytometer (BD, Accuri C6). […] The ratio was the ratio of mean fluorescence intensity (MFI) of the experimental group/the background MFI, and the resulting data were analyzed using GraphPad Prism.

[12] = biological target: T5, Human IL-1Rrp2/IL-1R6 protein, His Tag (ACROBiosystems, IL2-H52H6) (human, UniProt Q9HB29 20-335); experiment: BLI (ForteBio Octet), antibody on ProA sensor, 1:1 model
T5 construct: Bought protein; the soluble protein is likely only the extracellular part; also called hIL-36R; human IL36R antigen; not shown: His tag
T5 sequence: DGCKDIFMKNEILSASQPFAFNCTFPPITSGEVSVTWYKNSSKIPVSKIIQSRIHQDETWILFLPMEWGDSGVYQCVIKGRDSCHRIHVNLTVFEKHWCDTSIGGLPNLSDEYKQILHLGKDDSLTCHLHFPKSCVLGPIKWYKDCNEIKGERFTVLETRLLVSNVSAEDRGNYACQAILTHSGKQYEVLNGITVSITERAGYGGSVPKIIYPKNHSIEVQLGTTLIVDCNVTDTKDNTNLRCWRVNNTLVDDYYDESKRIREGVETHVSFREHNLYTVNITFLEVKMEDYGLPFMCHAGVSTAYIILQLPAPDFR
Protocol: The affinity of anti-IL-36R antibodies to CynoIL36R-ECD mFc and human IL-1Rrp2/IL-IR6 protein, His Tag (ACROBiosystems, IL2-H52H6) was measured by a ForteBio molecular interaction instrument. […] And then the biosensor was used to bind CynoIL36R-ECD mFc or human IL-1Rrp2/IL-1R6 protein, His Tag which was diluted by a gradient (the initial concentration was 200 nM, 2-fold gradient dilution), the response signals were detected in real time using a Fortebio molecular interaction instrument (SARTORIUS, octet red 96e), and association and dissociation curves were obtained. After the completion of dissociation in each cycle, the biosensor was regenerated for the next capture; the procedure was repeated until the affinity of the different anti-IL-36R antibodies for IL-36R was determined. The resulting data were analyzed by Fortebio Data Analysis 11.0 software in a 1:1 (Langmuir) binding model to determine kₐ (kₒₙ) and kd (koff) values, and the dissociation constant KD was calculated by KD=kd/kₐ. The detection method essentially followed the manufacturer's recommendations, and more information could be found at www.fortebio.com.

T1 sequence (chain, as listed by the source limits assumed): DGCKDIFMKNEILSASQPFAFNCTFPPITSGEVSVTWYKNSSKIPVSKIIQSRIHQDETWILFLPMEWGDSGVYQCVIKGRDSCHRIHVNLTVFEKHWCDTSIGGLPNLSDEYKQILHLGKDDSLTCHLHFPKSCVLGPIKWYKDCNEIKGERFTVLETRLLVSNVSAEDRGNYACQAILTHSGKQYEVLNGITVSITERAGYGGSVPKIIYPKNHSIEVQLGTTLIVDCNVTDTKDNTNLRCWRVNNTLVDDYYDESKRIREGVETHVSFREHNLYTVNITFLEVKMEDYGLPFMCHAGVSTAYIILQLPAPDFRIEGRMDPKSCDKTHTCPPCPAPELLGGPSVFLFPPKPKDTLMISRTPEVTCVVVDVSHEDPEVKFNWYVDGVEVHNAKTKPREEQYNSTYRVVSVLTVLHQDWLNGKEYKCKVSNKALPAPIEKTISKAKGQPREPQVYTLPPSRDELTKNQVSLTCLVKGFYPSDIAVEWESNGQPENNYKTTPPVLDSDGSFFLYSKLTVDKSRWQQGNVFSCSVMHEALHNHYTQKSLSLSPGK

B1: mouse antibody 84C4 (hybridoma clone 84C4) (antibody, V domains shown)
VH: EVQLQQLGAELVRPGASVMLSCKVSGYFFTSYWMNWVNQRPGQGLEWIGMIHPYDSETRLNQKFKGKATLTVDKSASTAYLQLSSPTSEEYAVYYCASSTTAFAYWGQGTLVTVSA
VL: DILMTQSPSSLSASLGERVSLTCRASQDIGNALNWLQQAPDGTIKRLIYATSSLDPGVPKRFSGSRSGSDYSLTISSLASEDFVYYYCLQYASSPYTFGGGTKLEIK
notes: Mouse hybridoma antibody tested as culture supernatant
- binding result [1]: binds

B2: chimeric 6G10 antibody (antibody, human IgG4 S228P, kappa, V domains shown)
VH: EVMLVESGGGLVKPGGSLKLSCAASGITFSRFAMSWIRQTPEKRLEWVATISSGDMYTYYPDSVKGRFTISRDNANNTLYLQMRSLRSEDTAMYYCAIMITTGEHAYWGQGTLVTVSA
VL: EIKMTQSPSSLSASLGDTITITCRASQDISVWLTWYQQKPGNIPKLLIYKASNLHTGVPPRFSGSGSGTDFTFTISSLQPEDITTYYCLQSQSYPWTFGGGTKLEIKR
notes: Mouse variable regions on human IgG4 / kappa; also called xi6G10
- IC50; NFκB-luciferase reporter in 293T-hIL36R-NFκB cells stimulated with hIL36β, inhibition rate % [2]: 1.8 nM
- IC50; IL-8 production of NHK cells stimulated with hIL36β, inhibition rate % [3]: 1.27 nM
- IC50; IL-8 production of NHK cells stimulated with hIL36γ, inhibition rate % [4]: 0.13 nM
- IC50; IL-8 production of OVCAR8 cells stimulated with hIL36α, inhibition rate % [5]: 0.0704 nM
- IC50; IL-8 production of NHK cells stimulated with hIL36α, inhibition rate % [6]: 0.555 nM
- IC50; IL-8 production of OVCAR8 cells stimulated with hIL36γ, inhibition rate % [7]: 0.0727 nM
- IC50; NFκB-luciferase reporter in 293T-hIL36R-NFκB cells stimulated with hIL36γ, inhibition rate % [8]: ~40.2 nM
- IC50; IL-8 production of OVCAR8 cells stimulated with hIL36β, inhibition rate % [9]: 0.182 nM
- IC50; NFκB-luciferase reporter in 293T-hIL36R-NFκB cells stimulated with hIL36α, inhibition rate % [10]: 2.77 nM
- EC50 [11]: 3.49 nM
- Kd [12]: 0.881 nM
- koff [12]: 5.01e-05 s⁻¹
- kon [12]: 56900 M⁻¹ s⁻¹

B3: mouse antibody 6G10 (hybridoma clone 6G10) (antibody, V domains shown)
VH: EVMLVESGGGLVKPGGSLKLSCAASGITFSRFAMSWIRQTPEKRLEWVATISSGDMYTYYPDSVKGRFTISRDNANNTLYLQMRSLRSEDTAMYYCAIMITTGEHAYWGQGTLVTVSA
VL: EIKMTQSPSSLSASLGDTITITCRASQDISVWLTWYQQKPGNIPKLLIYKASNLHTGVPPRFSGSGSGTDFTFTISSLQPEDITTYYCLQSQSYPWTFGGGTKLEIK
notes: as for B1
- binding result [1]: binds

B4: chimeric 58A8D1 antibody (antibody, human IgG4 S228P, kappa, V domains shown)
VH: EVQLQQLGSVLVRPGISVKLSCKASGYSFTSSWMHWTKQRPGQGLEWIGEIHPNSGNTNYNEKFKGKATLTVDTSSRTAYVDLSSLTSEDSAVYYCARSPYGYGGSMDYWGQGTSVTVSS
VL: DIQMTQTTSSLSASLGDRVTISCRASQDIHNYLNWYQQKPDGTVKLLIYYTSRLYSGVPSRFSGSGSGTDYSLTISNLEQEDFATYFCQQGNTLPVMFGSGTKLELKR
notes: Mouse variable regions on human IgG4 / kappa; also called xi58A8D1
- IC50; NFκB-luciferase reporter in 293T-hIL36R-NFκB cells stimulated with hIL36β, inhibition rate % [2]: 9.77 nM
- IC50; IL-8 production of NHK cells stimulated with hIL36β, inhibition rate % [3]: 0.0791 nM
- IC50; IL-8 production of NHK cells stimulated with hIL36γ, inhibition rate % [4]: 0.0136 nM
- IC50; IL-8 production of OVCAR8 cells stimulated with hIL36α, inhibition rate % [5]: 0.253 nM
- IC50; IL-8 production of NHK cells stimulated with hIL36α, inhibition rate % [6]: 0.0693 nM
- IC50; IL-8 production of OVCAR8 cells stimulated with hIL36γ, inhibition rate % [7]: 0.213 nM
- IC50; NFκB-luciferase reporter in 293T-hIL36R-NFκB cells stimulated with hIL36γ, inhibition rate % [8]: ~40.8 nM
- IC50; IL-8 production of OVCAR8 cells stimulated with hIL36β, inhibition rate % [9]: 0.415 nM
- IC50; NFκB-luciferase reporter in 293T-hIL36R-NFκB cells stimulated with hIL36α, inhibition rate % [10]: 16.4 nM
- EC50 [11]: 20.8 nM
- Kd [12]: 0.254 nM
- koff [12]: 9.15e-06 s⁻¹
- kon [12]: 36000 M⁻¹ s⁻¹

B5: mouse antibody 58A8D1 (hybridoma clone 58A8D1) (antibody, V domains shown)
VH: EVQLQQLGSVLVRPGISVKLSCKASGYSFTSSWMHWTKQRPGQGLEWIGEIHPNSGNTNYNEKFKGKATLTVDTSSRTAYVDLSSLTSEDSAVYYCARSPYGYGGSMDYWGQGTSVTVSS
VL: DIQMTQTTSSLSASLGDRVTISCRASQDIHNYLNWYQQKPDGTVKLLIYYTSRLYSGVPSRFSGSGSGTDYSLTISNLEQEDFATYFCQQGNTLPVMFGSGTKLELK
notes: as for B1
- binding result [1]: binds

B6: mouse antibody 74B4D6 (hybridoma clone 74B4D6) (antibody, V domains shown)
VH: EVQLQQPGAELGKPGASVKMACKASGYTFTNYWIHWVKQRPGQGLEWIGTIDPSENYTNYNQKFKGKATLTVDTSSSTAYMQLSSLTSEDKAVYFCTGSSFSYWGQGTLVTVSA
VL: QNVLTQSPAIMSVSPGEKVTMTCSASSSVSFIHWFQQKPGTSPKLWIYTTSNLASGVPARFSGSGSGTSYSLTISRMEAEDAATYYCQQRSSYPLTFGAGTKLELK
notes: as for B1
- binding result [1]: binds

B7: mouse antibody 72C1 (hybridoma clone 72C1) (antibody, V domains shown)
VH: EVQLQQSGPSLVKPSQTLSLTCSVTGASITSGYWNWIRNFPGNKLEYMGYISYSGYTYYNPSLKSRISITRDTSKNQYYLQLISVTTEDTATYYCATGGYDYVEDALYYWGQGTSVTVSS
VL: EILLTQSPAIMSATLGEKVTMSCRASSNVRYMYWYQLKSGASPKLWIYLTSNLASGVPARFSGSGSGTSYSLTISSVEAEDAATYFCQQFTTSPYTFGGGTKLEIK
notes: as for B1
- binding result [1]: binds
